The supplement of paper PMC9876800

Tested on: peptide library, one residue held at a place counted from the S/T acceptor
Assay: relative phosphorylation of the sub-library (ratio to the mean residue at this position); higher = residue favoured
Conditions: human
Method in brief: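 Relative sub-library phosphorylation is a ratio to the mean residue at the same position. Purified recombinant kinases were incubated under kinase-specific conditions with biotinylated degenerate peptide sub-libraries, each fixing one residue at one position around a central Ser/Thr, using 50 μM peptide and 50 μM ATP spiked with γ-32P-ATP for 90 min. Spots captured on streptavidin membranes were phosphorimaged and quantified by densitometry.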

CAMK2G, construct: aa24-334, sequence (Q13555 24-334, looked up): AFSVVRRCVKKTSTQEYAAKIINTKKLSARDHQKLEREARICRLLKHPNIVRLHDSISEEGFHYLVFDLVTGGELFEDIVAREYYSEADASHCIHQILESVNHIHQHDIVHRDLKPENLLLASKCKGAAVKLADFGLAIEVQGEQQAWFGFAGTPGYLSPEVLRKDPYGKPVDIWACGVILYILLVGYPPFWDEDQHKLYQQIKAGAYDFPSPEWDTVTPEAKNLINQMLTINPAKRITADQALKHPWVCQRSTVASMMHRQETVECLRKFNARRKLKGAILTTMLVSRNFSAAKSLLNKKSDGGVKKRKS
WNK3, construct: aa1-434, sequence (Q9BYP7 1-434, looked up): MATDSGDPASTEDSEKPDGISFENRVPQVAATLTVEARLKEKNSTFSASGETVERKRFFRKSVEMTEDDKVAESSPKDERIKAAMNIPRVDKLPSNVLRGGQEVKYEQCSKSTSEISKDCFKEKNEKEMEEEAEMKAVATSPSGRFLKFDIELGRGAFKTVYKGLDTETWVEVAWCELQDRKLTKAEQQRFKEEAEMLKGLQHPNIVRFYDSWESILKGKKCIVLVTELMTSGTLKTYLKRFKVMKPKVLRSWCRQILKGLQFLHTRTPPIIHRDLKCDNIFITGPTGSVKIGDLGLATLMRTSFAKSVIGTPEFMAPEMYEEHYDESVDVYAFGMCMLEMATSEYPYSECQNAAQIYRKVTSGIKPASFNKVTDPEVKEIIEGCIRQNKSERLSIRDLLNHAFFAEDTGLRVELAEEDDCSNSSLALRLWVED
PRKD1, construct: Full length, sequence (Q15139 whole entry, looked up): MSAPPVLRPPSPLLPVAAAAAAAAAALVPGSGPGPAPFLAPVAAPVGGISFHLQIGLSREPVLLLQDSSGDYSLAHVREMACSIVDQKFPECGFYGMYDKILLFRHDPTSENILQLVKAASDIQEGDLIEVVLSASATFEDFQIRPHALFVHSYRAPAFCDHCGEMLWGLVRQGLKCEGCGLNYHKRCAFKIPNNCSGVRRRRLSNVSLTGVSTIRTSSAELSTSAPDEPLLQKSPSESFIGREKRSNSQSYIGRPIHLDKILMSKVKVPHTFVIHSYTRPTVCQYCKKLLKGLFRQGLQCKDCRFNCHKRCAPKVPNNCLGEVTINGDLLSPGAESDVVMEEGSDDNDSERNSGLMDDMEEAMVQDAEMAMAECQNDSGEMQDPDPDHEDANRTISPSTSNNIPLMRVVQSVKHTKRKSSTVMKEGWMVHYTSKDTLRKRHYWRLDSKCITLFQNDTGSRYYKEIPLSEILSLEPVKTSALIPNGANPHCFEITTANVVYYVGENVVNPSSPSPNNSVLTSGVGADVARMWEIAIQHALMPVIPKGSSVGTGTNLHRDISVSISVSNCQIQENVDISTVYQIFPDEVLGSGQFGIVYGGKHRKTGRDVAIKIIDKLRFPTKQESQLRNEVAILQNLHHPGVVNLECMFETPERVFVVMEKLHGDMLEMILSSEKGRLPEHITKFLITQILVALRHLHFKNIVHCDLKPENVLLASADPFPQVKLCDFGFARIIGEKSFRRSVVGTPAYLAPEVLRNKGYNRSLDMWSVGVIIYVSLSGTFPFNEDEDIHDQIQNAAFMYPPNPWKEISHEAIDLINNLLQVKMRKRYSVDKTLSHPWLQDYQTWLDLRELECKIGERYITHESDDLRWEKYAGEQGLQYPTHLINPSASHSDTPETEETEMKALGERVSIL

WNK3, construct: aa1-434 (from UniProt Q9BYP7)
relative phosphorylation
Conditions	at +1	at +2	at +3	at +4	at -1	at -2	at -3	at -4	at -5
A fixed	0.622	0.792	0.655	0.69	0.647	1.05	0.84	0.962	0.856
D fixed	0.416	0.7	0.675	0.609	0.462	0.409	0.519	0.598	0.749
E fixed	0.359	0.496	0.64	0.647	0.6	0.361	0.552	0.766	0.91
F fixed	1.36	1.09	1.43	1.25	0.983	0.865	0.748	0.843	1.14
G fixed	0.784	0.939	0.674	0.771	0.605	1.41	0.728	0.853	0.972
H fixed	1.02	0.981	1.31	1.01	1.11	1.56	1.44	1.3	1.24
I fixed	1.19	1.59	1.09	1.38	0.924	0.746	0.95	0.836	0.879
K fixed	0.825	0.772	1	1	1.51	1.19	1.7	1.37	1.39
L fixed	1.61	1.5	1.32	1.29	1.26	0.8	0.862	0.858	0.753
M fixed	1.84	1.54	1.29	1.41	1.49	0.852	1.16	0.894	0.861
N fixed	0.937	0.654	0.747	0.682	0.799	0.815	0.795	0.973	0.968
P fixed	0.278	0.356	0.441	0.626	0.428	1.24	0.794	0.8	0.702
Q fixed	1.16	0.608	0.648	0.677	1.22	0.768	1.11	0.901	0.986
R fixed	1.16	1.64	0.994	0.959	1.53	1.85	1.87	1.77	1.69
V fixed	1.03	1.28	0.994	1.35	1.09	1.07	0.871	0.957	0.818
W fixed	1.06	0.946	1.59	1.4	1.15	1.01	1.01	1.14	0.974
Y fixed	1.33	1.12	1.51	1.24	1.2	0.997	1.06	1.19	1.12
pThr fixed	0.485	0.521	0.513	0.543	0.566	0.779	0.812	0.96	0.798
pTyr fixed	0.566	0.549	0.663	0.56	0.893	0.555	0.741	0.842	0.859

PRKD1, construct: Full length (from UniProt Q15139)
relative phosphorylation
Conditions	at +1	at +2	at +3	at +4	at -1	at -2	at -3	at -4	at -5
A fixed	0.979	1.13	0.873	1.1	0.938	1.9	1.38	1.82	1.63
D fixed	0.653	1.21	1.14	1.37	0.869	0.32	0.243	0.514	0.411
E fixed	0.53	0.784	0.839	1.05	0.564	0.578	0.347	0.925	0.362
F fixed	0.964	0.86	0.811	0.885	0.467	0.609	0.47	0.792	0.668
G fixed	1.19	1.52	1.75	1.39	0.878	0.682	0.919	1.86	0.708
H fixed	1.05	1.04	0.95	1.23	0.823	0.726	0.802	0.897	0.506
I fixed	0.989	0.505	0.669	0.601	0.383	0.552	0.284	0.694	1.03
K fixed	0.619	0.518	0.582	0.651	1.79	1.78	1.46	1.09	0.414
L fixed	1.02	0.66	0.887	0.674	0.863	0.735	0.346	0.791	3.41
M fixed	1.22	0.946	0.886	0.924	0.945	1.79	0.653	1.25	0.713
N fixed	2.19	1.9	1.2	1.31	2.05	0.912	0.829	0.831	0.537
P fixed	0.369	1.81	2.37	1.46	2.43	0.593	1.49	0.656	1.34
Q fixed	1.47	1.1	1.13	1.25	1.27	2.26	0.865	1.26	0.953
R fixed	0.537	0.486	0.364	0.436	0.703	1.46	5.06	1.12	1.29
V fixed	1.04	0.688	0.735	0.624	0.613	1.01	0.411	0.844	1.61
W fixed	0.966	0.971	0.889	0.963	0.535	0.455	0.677	0.787	0.538
Y fixed	1.22	0.86	0.926	1.07	0.873	0.644	0.777	0.857	0.878
pThr fixed	0.596	0.624	0.842	0.939	0.207	0.27	0.295	0.467	0.28
pTyr fixed	0.774	0.836	0.826	1.12	0.69	0.357	0.306	0.533	0.624

CAMK2G, construct: aa24-334 (from UniProt Q13555)
relative phosphorylation
Conditions	at +1	at +2	at +3	at +4	at -1	at -2	at -3	at -4	at -5
A fixed	0.737	0.749	0.902	0.943	0.933	0.991	0.897	0.98	1
D fixed	0.862	3.95	1.64	1.87	1.41	1.02	0.898	1.07	1.13
E fixed	0.878	2.06	2.04	1.99	1.26	0.887	0.9	1.04	1.12
F fixed	2.53	0.723	0.818	0.816	0.913	1.25	1.27	0.987	0.991
G fixed	0.709	0.692	0.983	1.02	0.953	1.07	0.829	0.974	0.971
H fixed	0.814	0.784	0.979	0.903	0.897	1.25	1.06	1.14	1.19
I fixed	1.14	0.712	0.879	0.814	0.855	0.775	0.918	0.924	0.855
K fixed	0.824	0.705	0.863	0.785	1.1	0.889	0.945	0.946	1.09
L fixed	1.01	0.675	0.907	0.812	0.965	0.795	0.916	0.894	0.953
M fixed	1.43	0.696	0.855	0.785	0.944	0.841	1.04	0.903	0.871
N fixed	0.813	0.92	0.943	0.91	1.05	1.17	1.04	1.07	1.02
P fixed	0.675	0.64	0.708	0.948	0.78	0.705	0.871	0.896	0.864
Q fixed	0.959	0.773	0.98	0.911	1.07	1	0.982	0.96	0.916
R fixed	0.841	0.72	0.833	0.764	1.11	0.963	1.14	0.906	1
V fixed	1.02	0.729	0.888	0.85	0.912	0.805	0.829	0.883	0.963
W fixed	0.776	0.74	0.877	1.01	0.919	1.41	1.33	1.37	1.13
Y fixed	0.984	0.728	0.907	0.881	0.933	1.18	1.14	1.05	0.938
pThr fixed	1.09	1.16	1.78	2.53	1.25	1	0.985	1.11	1
pTyr fixed	1.23	4.79	1.69	2.15	1.63	1.11	1.11	1.1	1.02
